Numbered stars: 1 amine (or outer) side, 2 acyl side, 3 side chain; on linkers, the order of the positions; unused ones are H or OH. Bridge positions count the residues as written; N and C are the ends. Square brackets hold non-standard residues; d marks the D form. Primed or numbered codes have the meaning given here. Ends that are not written are not given here. acetyl″ = bridging -C(=O)-CH2- from a haloacetyl (chloroacetyl) group on the side-chain amine of K/Orn/Dab/Dap, the thiol sulfur replaces the halogen on its CH2 (X(acetyl) notation); acetyl = acetyl (haloacetyl before ring closure) on the side-chain amine, O=C(C[*:1])[*:2]; COCH2 = acetyl group that carries the bridge; hCys = N[C@@H](CCS)C(=O)O
Columns and labels:
[1] = target: T1, Recombinant Human FGFR2 alpha (IIIc) Fc Chimera Protein (Homo sapiens, UniProt P21802); experiment: ELISA binding affinity of enzymatically synthesized peptide to FGFR; conditions: ELISA luminescence signal at 10 nmol/L peptide, SEQ ID NO: 47 at 10 nmol/L standardized to 1; enzyme synthesis product
T1 construct: Fc (chimera); purchased R&D systems 712-FR-050
Method in brief: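 FGFR2 alpha (IIIc) Fc chimera (5 ng/well) was immobilized, and Myc-tagged peptide was bound 3 h at room temperature, then detected with anti-Myc antibody (2 h) and chemiluminescent substrate. Signal was corrected against FGFR-free wells. Score A–D was the luminescence at 10 nmol/L peptide, normalized to cyclic peptide SEQ ID NO: 47.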

[2] = target: T1, Recombinant Human FGFR2 alpha (IIIc) Fc Chimera Protein; experiment: SPR binding affinity of chemically synthesized cyclic peptide to immobilized FGFR; conditions: SPR binding amount at 10 nmol/L cyclic peptide, 25° C., per one molecule of FGFR; chemically synthesized product
Experimental: The binding affinity of the cyclic peptide to FGFR was evaluated using a surface plasmon resonance (SPR) method.
(§1) A CM5 sensor chip (Cytiva, 29149603) was set in Biacore-T200 (manufactured by Cytiva) which is a surface plasmon resonance device, and an HBS-EP buffer (Cytiva, BR100826) was added as a running buffer at a flow rate of 10 μL/min to equilibrate the flow channel. Next, 70 μL of a mixed aqueous solution of 0.2 mol/L 1-(3-dimethylaminopropyl)-3-ethylcarbodiimide (EDC) and 0.05 mol/L N-hydroxysuccinimide (NHS) was added to activate the sensor chip. Then, Recombinant Human FGFR2 alpha (IIIc) Fc Chimera Protein CF (R&D systems, 712-FR-050) prepared at 50 nmol/L in an Acetate 4.5 buffer (Cytiva, BR100350) was added thereto to perform immobilization at about 5000 RU. Thereafter, the blocking treatment was performed with an ethanolamine solution. In addition, in another flow channel of the same sensor chip, blocking treatment was performed immediately after activation without immobilizing FGFR.
(§2) A cyclic peptide diluted to 10 nmol/L using HBS-EP was added to each flow channel of the FGFR-immobilized sensor chip produced above at 25° C. for 10 minutes, then HBS-EP was allowed to flow as a running buffer for 30 minutes, and the binding of the cyclic peptide to FGFR was measured. Thereafter, a regeneration treatment of removing the bound cyclic peptide was performed by repeating the flow of a regeneration liquid in which sodium chloride powder was dissolved in Glysine 1.5 (Cytiva, BR100354) to a final concentration of 0.15 mol/L for 1 minute in each flow channel twice. The binding amount of the cyclic peptide was evaluated from the difference between the measured value of Biacore-T200 in the flow channel in which FGFR was immobilized and the measured value of Biacore-T200 in the flow channel in which FGFR was not immobilated, in a case where a 10 nmol/L cyclic peptide was allowed to flow.
The binding amount of the cyclic peptide evaluated above was normalized to the binding amount of the cyclic peptide molecules per one molecule of FGFR using the molecular weights of the cyclic peptide and FGFR, and the binding affinity to FGFR was evaluated according to the following evaluation criteria. The evaluation result preferably satisfies the evaluation criteria A, B, or C.

[3] = Molecular stability after reducing agent (DTT) treatment, LC; assay type: physicochemical; conditions: residual rate after DTT aqueous solution, room temperature, 1 hour
Experimental: The molecular stability of the cyclic peptide was evaluated by analyzing an aqueous solution of the cyclic peptide treated with a reducing agent by liquid chromatography (LC).
The reducing agent treatment was performed under the following conditions based on the concentration of glutathione contained in the cells. 25 μL of a 0.2 mg/mL cyclic peptide aqueous solution was prepared, 58.8 μL of a 12.6 mmol/L DTT aqueous solution was added to the aqueous solution, and the mixture was incubated at room temperature for 1 hour to obtain an aqueous solution of the cyclic peptide treated with a reducing agent. The DTT aqueous solution was used by diluting a 1 mol/L (+−)-dithiothreitol (DTT) solution (FUJIFILM Wako Pure Chemical Corporation, 044-33871) with water. The total area of all the peaks in LC/MS of the cyclic peptide before the reducing agent treatment was set to 100%, and the proportion of the total area of all the peaks in LC/MS of the aqueous solution of the cyclic peptide treated with the reducing agent was determined to calculate the residual rate of the cyclic peptide, and the molecular stability was evaluated according to the following evaluation criteria. The evaluation result preferably satisfies the evaluation criteria A, B, or C.
The LC used for the evaluation of molecular stability was set to the following conditions. • LC device: Prominence series (pump, column oven, autosampler, detector) (manufactured by Shimadzu Corporation) • Detector: photodiode array detector (SPD-M20A), measurement wavelength of 280 nm • Column: TSKgel ODS-100V, inner diameter of 4.6 mm×length of 150 mm, particle diameter of 5 μm (manufactured by Tosoh Corporation) • Eluent A: solution containing 0.1% trifluoroacetic acid as solute, and solvent is 100% water • Eluent B: solution containing 0.1% trifluoroacetic acid as solute, and solvent is 100% acetonitrile • Flow rate: 1.0 mL/min • Injection amount: 25 μL • Gradient: 20% to 50%: Eluent B (0 to 15 minutes), 100%: Eluent B (15 minutes) • Column temperature: 40° C.

[4] = target: T2, Recombinant Human FGFR2 alpha (IIIc) Fc Chimera Protein, CF (R&D systems, 712-FR-050) (human, UniProt P21802 22-377); experiment: SPR, 10 nmol/L peptide over immobilized FGFR2-Fc
T2 construct: bought; not shown: Fc part of the chimera
Experimental: as §1, §2

T2 sequence (P21802 22-377, change not shown): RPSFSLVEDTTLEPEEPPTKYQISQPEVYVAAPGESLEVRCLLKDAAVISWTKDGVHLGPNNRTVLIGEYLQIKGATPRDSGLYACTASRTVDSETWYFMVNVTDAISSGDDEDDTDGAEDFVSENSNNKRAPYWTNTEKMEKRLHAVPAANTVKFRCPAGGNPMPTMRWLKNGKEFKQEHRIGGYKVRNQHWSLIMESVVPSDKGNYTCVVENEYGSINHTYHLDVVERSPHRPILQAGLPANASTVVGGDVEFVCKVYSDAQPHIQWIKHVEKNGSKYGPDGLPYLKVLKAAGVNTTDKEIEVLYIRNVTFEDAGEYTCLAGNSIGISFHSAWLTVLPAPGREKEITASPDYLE
T1 sequence (P21802 with tags, fused parts or gaps limits assumed): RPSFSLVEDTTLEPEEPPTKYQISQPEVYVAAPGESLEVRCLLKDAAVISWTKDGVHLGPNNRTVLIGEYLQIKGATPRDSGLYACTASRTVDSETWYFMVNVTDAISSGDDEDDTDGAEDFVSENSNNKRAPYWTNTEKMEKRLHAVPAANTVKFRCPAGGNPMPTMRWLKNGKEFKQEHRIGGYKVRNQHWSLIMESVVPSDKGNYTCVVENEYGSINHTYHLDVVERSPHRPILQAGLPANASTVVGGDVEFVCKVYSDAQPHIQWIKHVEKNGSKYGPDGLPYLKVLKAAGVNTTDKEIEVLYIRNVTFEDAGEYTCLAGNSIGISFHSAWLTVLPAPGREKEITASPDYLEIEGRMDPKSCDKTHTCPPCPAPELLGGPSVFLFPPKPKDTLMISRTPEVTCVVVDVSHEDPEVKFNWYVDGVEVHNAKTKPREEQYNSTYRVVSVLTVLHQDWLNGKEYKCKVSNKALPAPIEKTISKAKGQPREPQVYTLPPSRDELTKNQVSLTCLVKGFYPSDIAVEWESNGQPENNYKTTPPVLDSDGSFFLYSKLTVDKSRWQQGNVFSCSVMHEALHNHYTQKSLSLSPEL

| Molecule | Evaluation result of binding affinity to FGFR [1] | further results |
| --- | --- | --- |
| 424 (VCTQPQQDFELIYQYLYQLAK(COCH2)Q; thioether 2-21 via acetyl) [compound 424] | C (0.1 or more and less than 0.5) |  |
| 425 (GCGYTQLHYQHLFAWLHARK(COCH2)V; thioether 2-20 via acetyl) [compound 425] | C (0.1 or more and less than 0.5) |  |
| 426 (PCDPLNLQQWYTAVYQLWHK(COCH2)R; thioether 2-20 via acetyl) [compound 426] | C (0.1 or more and less than 0.5) |  |
| 427 (ECDTADYPQEWIQDVYQYLYK(COCH2)R; thioether 2-21 via acetyl) [compound 427] | C (0.1 or more and less than 0.5) |  |
| 428 (ECDQAQQVYALIYRYLYQLQK(COCH2)V; thioether 2-21 via acetyl) [compound 428] | C (0.1 or more and less than 0.5) |  |
| 429 (YCHENYLDPEQYQYFHYFK(COCH2); thioether 2-19 via acetyl) [compound 429] | C (0.1 or more and less than 0.5) |  |
| 430 (CHENYLDPEQYQYFHYFK(COCH2)Y; thioether 1-18 via acetyl) [compound 430] | A (0.7 or more) |  |
| 431 (CHENYLDPEQYQYFHYFK(COCH2); thioether 1-18 via acetyl) [compound 431] | C (0.1 or more and less than 0.5) |  |
| 432 (CENYLDPEQYQYFHYFK(COCH2)Y; thioether 1-17 via acetyl) [compound 432] | C (0.1 or more and less than 0.5) |  |
| 433 (Q[hCys]PQNFINPVQWRYFQHYK(COCH2)NKKK; thioether 2-19 via acetyl) [compound 433] |  | Evaluation result of binding affinity to FGFR [2]: A (The binding amount is 0.7 molecules of the cyclic peptide/one molecule of FGFR or more.); Evaluation result of reductive stability [3]: A (The residual rate of cyclic peptide is 90% or more.) |
| 434 (QXPQNFINPVQWRYFQHYXNKKK; not fully specified; Description of Artificial Sequence: Cyclic peptide) [compound 434] |  | Evaluation result of binding affinity to FGFR [2]: A (The binding amount is 0.7 molecules of the cyclic peptide/one molecule of FGFR or more.); Evaluation result of reductive stability [3]: A (The residual rate of cyclic peptide is 90% or more.) |
| 435 (QXPQNFINPVQWRYFQHYXNKKK; not fully specified; Description of Artificial Sequence: Cyclic peptide) [compound 435] |  | Evaluation result of binding affinity to FGFR [2]: A (The binding amount is 0.7 molecules of the cyclic peptide/one molecule of FGFR or more.); Evaluation result of reductive stability [3]: A (The residual rate of cyclic peptide is 90% or more.) |
| YXHENYLDPEQYQYFHYFKKKK (thioether ring (Hcy)-(K(acetyl)), chemically synthesized) [cyclic peptide SEQ ID NO: 453] |  | binding amount (SPR, cyclic peptide molecules bound per FGFR molecule at 10 nmol/L peptide) [4]: 0.1 to 0.5 moleculesofthecyclicpeptide/onemoleculeoffgfr |
| Y[hCys]EENYLDPEQYQYFIYFK(COCH2)YKKK (thioether 2-19 via acetyl″, chemically synthesized) [cyclic peptide SEQ ID NO: 442] |  | binding amount (SPR, cyclic peptide molecules bound per FGFR molecule at 10 nmol/L peptide) [4]: ≥ 0.7 moleculesofthecyclicpeptide/onemoleculeoffgfr |
| YXHENYLDPEQYQYFHYFKYKKK (thioether ring (Hcy)-(K(acetyl)), chemically synthesized) [cyclic peptide SEQ ID NO: 452] |  | binding amount (SPR, cyclic peptide molecules bound per FGFR molecule at 10 nmol/L peptide) [4]: ≥ 0.7 moleculesofthecyclicpeptide/onemoleculeoffgfr |

Source: patent US20260008815A1, “CYCLIC PEPTIDE OR SALT THEREOF, AND USES THEREOF” (FUJIFILM Corporation, priority 2023, published 2026)
